Measurements published in publication PMC4624489.

Tests used:
Hfq:D9A-S38W = Hfq:D9A-S38W (Escherichia coli, UniProt P0A6X3 1-102, D9A;S38W); assay: tryptophan fluorescence quenching
Hfq:E18A-S38W = Hfq:E18A-S38W (Escherichia coli, UniProt P0A6X3 1-102, E18A;S38W); assay: tryptophan fluorescence quenching

## GUGGUCAGUCGAGUGG (ssRNA) [oligo C]
Hfq:D9A-S38W
  binding result: binds
Hfq:E18A-S38W
  binding result: binds
